# Data published in publication doi:10.1101/2025.06.28.662095, “Mechanistic insights into the allosteric regulation of cell wall hydrolase RipA in Mycobacterium tuberculosis” (bioRxiv, 2025).
# B1: MtRipACC (coiled-coil domain of M. tuberculosis RipA, residues 40-240) (domain or fragment)
# chain: DPQTDTIAALIADVAKANQRLQDLSDEVQAEQESVNKAMVDVETARDNAAAAEDDLEVSQRAVKDANAAIAAAQHRFDTFAAATYMNGPSVSYLSASSPDEIIATVTAAKTLSASSQAVMANLQRARTERVNTESAARLAKQKADKAAADAKASQDAAVAALTETRRKFDEQREEVQRLAAERDAAQARLQAARLVAWSSE
# modifications: biotinylated with EZ-Link NHS-PEG4-Biotin (20 molar excess) for the BLI assays
# notes: also called RipA coiled-coil (CC) domain; MtRipA CC domain; not shown: 6xHis-SUMO, N-terminal, cleaved
# Biological target: T1, MtSteBΔTM (M. tuberculosis SteB devoid of its TM domain, residues 38-314) (Mycobacterium tuberculosis, UniProt P9WJ83 38-314)
# T1 construct: Homodimer in both crystal structures; also called Rv1698; MctB; not shown: 6xHis-SUMO, N-terminal, cleaved
# Assay: BLI; biotinylated MtRipACC immobilised on streptavidin biosensors; 25°C; 25 mM HEPES pH 7.5, 150 mM NaCl, 5% glycerol, BSA 1 mg/mL, 0.05% Tween 20; steady-state signal versus concentration, one-site binding model; apparent Kd
# Settings: both partners purified
binder,measurement,value
B1,Kd,42.6 ± 4.4 µM
